Results published in patent US20110110857.
Numbering of substitutions follows the chain as printed. Names and notes keep the numbering of the source.

Tests used:
[1] = biological target: bovine serum albumin, P02769
[2] = biological target: C. muridarum Major Outer Membrane Protein (MOMP)

Chain of bovine serum albumin, P02769 (P02769 25-607): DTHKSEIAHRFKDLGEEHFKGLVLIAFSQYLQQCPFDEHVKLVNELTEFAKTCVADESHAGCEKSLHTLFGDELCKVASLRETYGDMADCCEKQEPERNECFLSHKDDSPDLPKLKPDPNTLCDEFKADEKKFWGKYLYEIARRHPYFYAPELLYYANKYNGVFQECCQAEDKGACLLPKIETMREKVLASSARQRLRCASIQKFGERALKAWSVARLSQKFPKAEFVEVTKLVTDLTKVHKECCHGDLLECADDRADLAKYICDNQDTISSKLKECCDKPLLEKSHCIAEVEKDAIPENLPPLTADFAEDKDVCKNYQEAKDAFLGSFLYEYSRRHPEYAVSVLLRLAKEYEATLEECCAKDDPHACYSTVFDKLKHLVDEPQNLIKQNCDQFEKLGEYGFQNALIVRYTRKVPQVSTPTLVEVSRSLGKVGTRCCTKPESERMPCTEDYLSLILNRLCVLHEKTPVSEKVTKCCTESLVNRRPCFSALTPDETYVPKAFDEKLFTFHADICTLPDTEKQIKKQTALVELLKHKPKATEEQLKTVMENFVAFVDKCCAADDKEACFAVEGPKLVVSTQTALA

B1: wild-type C. trachomatis HtrA (CT823) (protein)
chain: SPMLGYSASKKDSKADICLAVSSGDQEVSQEDLLKEVSRGFSRVAAKATPGVVYIENFPKTGNQAIASPGNKRGFQENPFDYFNDEFFNRFFGLPSHREQQRPQQRDAVRGTGFIVSEDGYVVTNHHVVEDAGKIHVTLHDGQKYTAKIVGLDPKTDLAVIKIQAEKLPFLTFGNSDQLQIGDWAIAIGNPFGLQATVTVGVISAKGRNQLHIVDFEDFIQTDAAINPGNSGGPLLNINGQVIGVNTAIVSGSGGYIGIGFAIPSLMAKRVIDQLISDGQVTRGFLGVTLQPIDSELATCYKLEKVYGALVTDVVKGSPAEKAGLRQEDVIVAYNGKEVESLSALRNAISLMMPGTRVVLKIVREGKTIEIPVTVTQIPTEDGVSALQKMGVRVQNITPEICKKLGLAADTRGILVVAVEAGSPAASAGVAPGQLILAVNRQRVASVEELNQVLKNSKGENVLLMVSQGDVVRFIVLKSDE
- protease digestion of BSA, overnight at 37 C, SDS-PAGE/Coomassie, with DTT [1]: strong protease activity in the presence of the reducing agent DTT (dithiothreitol) as shown by degradation of the intact BSA protein

B2: wild type C. muridarum HtrA (TC0210) (protein)
chain: SPMLGYSAPKKDSSTGICLAASQSDRELSQEDLLKEVSRGFSKVAAQATPGVVYIENFPKTGSQAIASPGNKRGFQENPFDYFNDEFFNRFFGLPSHREQPRPQQRDAVRGTGFIVSEDGYVVTNHHVVEDAGKIHVTLHDGQKYTAKIIGLDPKTDLAVIKIQAKNLPFLTFGNSDQLQIGDWSIAIGNPFGLQATVTVGVISAKGRNQLHIVDFEDFIQTDAAINPGNSGGPLLNIDGQVIGVNTAIVSGSGGYIGIGFAIPSLMAKRVIDQLISDGQVTRGFLGVTLQPIDSELAACYKLEKVYGALITDVVKGSPAEKAGLRQEDVIVAYNGKEVESLSALRNAISLMMPGTRVVLKVVREGKFIEIPVTVTQIPAEDGVSALQKMGVRVQNLTPEICKKLGLASDTRGIFVVSVEAGSPAASAGVVPGQLILAVNRQRVSSVEELNQVLKNAKGENVLLMVSQGEVIRFVVLKSDE
- protease digestion of BSA, SDS-PAGE/Coomassie, with DTT [1]: possesses a strong protease activity as it degrades the BSA substrate (lane 5)
- protease digestion of MOMP, SDS-PAGE/Coomassie, with DTT [2]: completely degrades MOMP protein in the presence of DTT (lane 7)
- protease digestion of MOMP, SDS-PAGE/Coomassie, without DTT [2]: strongly degrades MOMP protein in the absence of DTT (lane 5)

B3: TC0210-(H143R) (protein)
chain: B2 chain with H127R
- protease digestion of BSA, SDS-PAGE/Coomassie, with DTT [1]: does not degrade the BSA substrate (lane 3)
- protease digestion of MOMP, SDS-PAGE/Coomassie, with and without DTT [2]: does not degrade the MOMP protein, either in the presence of DTT (lane 8) or in the absence of DTT (lane 6)
